# Positions count from the first letter of the chain named. Names and notes keep the numbering of the source.
# B1: RAD51 (wild type, recombinant) (natural protein)
# chain: MAMQMQLEANADTSVEEESFGPQPISRLEQCGINANDVKKLEEAGFHTVEAVAYAPKKELINIKGISEAKADKILAEAAKLVPMGFTTATEFHQRRSEIIQITTGSKELDKLLQGGIETGSITEMFGEFRTGKTQICHTLAVTCQLPIDRGGGEGKAMYIDTEGTFRPERLLAVAERYGLSGSDVLDNVAYARAFNTDHQTQLLYQASAMMVESRYALLIVDSATALYRTDYSGRGELSARQMHLARFLRMLLRLADEFGVAVVITNQVVAQVDGAAMFAADPKKPIGGNIIAHASTTRLYLRKGRGETRICKIYDSPCLPEAEAMFAINADGVGDAKD
# B2: RAD51-K133R (natural protein)
# chain: B1 chain with K133R
# B3: GST-FIGNL1-dNLS (domain or fragment)
# chain: AGKKFKDSLLEPALASVVIHKEATVFDLPKFSVCGSSQESDSLPNSAHDRDRTQDFPESNRLKLLQNAQPPMVTNTARTCPTFSAPVGESATAKFHVTPLFGNVKKENHSSAKENIGLNVFLSNQSCFPAACENPQRKSFYGSGTIDALSNPILNKACSKTEDNGPKEDSSLPTFKTAKEQLWVDQQKKYHQPQRASGSSYGGVKKSLGASRSRGILGKFVPPIPKQDGGEQNGGMQCKPYGAGPTEPAHPVDERLKNLEPKMIELIMNEIMDHGPPVNWEDIAGVEFAKATIKEIVVWPMLRPDIFTGLRGPPKGILLFGPPGTGKTLIGKCIASQSGATFFSISASSLTSKWVGEGEKMVRALFAVARCQQPAVIFIDEIDSLLSQRGDGEHESSRRIKTEFLVQLDGATTSSEDRILVVGATNRPQEIDEAARRRLVKRLYIPLPEASARKQIVINLMSKEQCCLSEEEIEQIVQQSDAFSGADMTQLCREASLGPIRSLQTADIATITPDQVRPIAYIDFENAFRTVRPSVSPKDLELYENWNKTFGCGK
# Columns and labels:
# GST-FIGNL1-dNLS = target: B3; assay: pull-down
# [1] = target: MMS22L-TONSL complex (recombinant, purified) (human, UniProt Q6ZRQ5;Q96HA7); assay: pull-down
# MMS22L-TONSL complex (recombinant, purified), sequence (Q6ZRQ5 whole entry, chain 1 of 2): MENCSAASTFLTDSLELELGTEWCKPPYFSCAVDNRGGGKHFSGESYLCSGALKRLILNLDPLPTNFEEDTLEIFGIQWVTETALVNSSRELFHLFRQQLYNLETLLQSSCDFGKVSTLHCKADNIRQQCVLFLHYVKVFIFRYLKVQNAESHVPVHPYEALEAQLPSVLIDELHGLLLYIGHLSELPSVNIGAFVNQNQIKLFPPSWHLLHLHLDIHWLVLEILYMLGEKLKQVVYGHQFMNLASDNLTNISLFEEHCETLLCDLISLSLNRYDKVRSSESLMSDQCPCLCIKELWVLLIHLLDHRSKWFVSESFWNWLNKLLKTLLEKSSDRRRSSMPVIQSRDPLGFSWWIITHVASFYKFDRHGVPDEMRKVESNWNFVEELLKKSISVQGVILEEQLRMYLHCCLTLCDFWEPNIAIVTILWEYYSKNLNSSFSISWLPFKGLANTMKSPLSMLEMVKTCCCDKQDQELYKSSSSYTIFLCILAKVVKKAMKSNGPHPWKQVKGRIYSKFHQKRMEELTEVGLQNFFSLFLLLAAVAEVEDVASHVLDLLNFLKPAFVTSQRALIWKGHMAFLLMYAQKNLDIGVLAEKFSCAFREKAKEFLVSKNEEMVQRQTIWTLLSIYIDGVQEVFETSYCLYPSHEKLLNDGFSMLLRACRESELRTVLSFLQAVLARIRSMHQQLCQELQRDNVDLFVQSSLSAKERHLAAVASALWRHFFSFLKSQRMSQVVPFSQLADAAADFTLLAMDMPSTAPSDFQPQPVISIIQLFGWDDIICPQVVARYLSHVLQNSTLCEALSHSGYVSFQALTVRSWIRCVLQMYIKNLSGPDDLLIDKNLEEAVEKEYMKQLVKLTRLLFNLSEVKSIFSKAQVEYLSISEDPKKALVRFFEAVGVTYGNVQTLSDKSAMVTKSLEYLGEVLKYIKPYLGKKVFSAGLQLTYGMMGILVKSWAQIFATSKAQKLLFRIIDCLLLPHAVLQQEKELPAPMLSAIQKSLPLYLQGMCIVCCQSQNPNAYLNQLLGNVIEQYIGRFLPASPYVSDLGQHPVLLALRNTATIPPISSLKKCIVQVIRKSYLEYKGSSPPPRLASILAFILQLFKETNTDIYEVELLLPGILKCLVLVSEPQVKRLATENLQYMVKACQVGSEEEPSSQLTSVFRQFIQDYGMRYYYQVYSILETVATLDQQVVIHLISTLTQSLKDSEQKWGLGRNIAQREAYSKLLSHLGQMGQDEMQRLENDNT
# MMS22L-TONSL complex (recombinant, purified), sequence (Q96HA7 whole entry, chain 2 of 2): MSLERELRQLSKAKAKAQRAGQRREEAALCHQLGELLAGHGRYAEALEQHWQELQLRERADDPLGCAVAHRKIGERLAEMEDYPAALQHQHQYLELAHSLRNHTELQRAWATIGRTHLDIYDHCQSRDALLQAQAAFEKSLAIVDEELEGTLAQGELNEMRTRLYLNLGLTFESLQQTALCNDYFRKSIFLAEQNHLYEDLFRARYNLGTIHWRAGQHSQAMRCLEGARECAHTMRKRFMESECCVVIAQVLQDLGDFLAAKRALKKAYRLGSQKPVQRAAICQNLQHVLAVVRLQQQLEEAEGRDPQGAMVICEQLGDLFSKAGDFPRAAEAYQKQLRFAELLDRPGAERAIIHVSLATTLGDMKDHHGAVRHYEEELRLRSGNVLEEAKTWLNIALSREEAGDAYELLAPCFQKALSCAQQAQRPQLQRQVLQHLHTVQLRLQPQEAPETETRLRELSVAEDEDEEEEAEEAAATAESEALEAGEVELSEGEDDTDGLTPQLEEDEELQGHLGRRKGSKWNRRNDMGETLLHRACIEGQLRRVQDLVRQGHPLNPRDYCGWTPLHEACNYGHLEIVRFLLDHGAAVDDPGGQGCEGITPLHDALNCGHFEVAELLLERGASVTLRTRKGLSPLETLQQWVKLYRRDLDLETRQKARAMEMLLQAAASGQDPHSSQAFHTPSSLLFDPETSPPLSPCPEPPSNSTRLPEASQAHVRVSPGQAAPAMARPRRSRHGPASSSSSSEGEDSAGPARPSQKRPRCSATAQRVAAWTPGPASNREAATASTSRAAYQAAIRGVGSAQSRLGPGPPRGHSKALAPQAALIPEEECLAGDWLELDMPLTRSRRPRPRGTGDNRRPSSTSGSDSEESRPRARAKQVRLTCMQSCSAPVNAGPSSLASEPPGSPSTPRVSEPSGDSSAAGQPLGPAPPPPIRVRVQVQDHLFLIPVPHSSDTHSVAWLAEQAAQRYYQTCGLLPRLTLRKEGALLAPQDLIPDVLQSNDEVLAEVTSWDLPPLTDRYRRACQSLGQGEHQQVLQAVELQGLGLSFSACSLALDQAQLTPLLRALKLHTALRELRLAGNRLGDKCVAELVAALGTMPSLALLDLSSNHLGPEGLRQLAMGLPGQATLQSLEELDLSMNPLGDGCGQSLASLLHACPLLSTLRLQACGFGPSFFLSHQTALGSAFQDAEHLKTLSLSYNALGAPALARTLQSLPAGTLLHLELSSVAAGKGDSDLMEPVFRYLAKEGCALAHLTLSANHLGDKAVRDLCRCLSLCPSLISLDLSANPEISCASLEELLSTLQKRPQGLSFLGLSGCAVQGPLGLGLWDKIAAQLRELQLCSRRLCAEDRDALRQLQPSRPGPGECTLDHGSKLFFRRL
binding result (GST-FIGNL1-dNLS),binding result [1],Binder
binds,–,B1
binds,–,B2
–,binds,B3

# — publication doi:10.1101/2024.11.03.621741 (bioRxiv, 2024)
